Entries after “also recorded” stand apart in the source; their conditions may differ. No end group written: not given here.
Key:
chymotrypsin = biological target: T1, chymotrypsin (Bos taurus, UniProt P00766); assay: Treatment of Product R with chymotrypsin, SDS-PAGE on a 16% gel; assay type: physicochemical; parameters: key to Sensitivity of the Peptide Components of Product R (SDS-PAGE): Chymotrypsin (250 μg/ml): “−” represents no substantial alteration of the stainable bands; “+” represents substantial alteration of the stainable bands; conditions: 250 μg/ml chymotrypsin, 25° C., 19 hours
T1 construct: purchased Boehringer Mannheim, USA
Procedure: (§1) The biochemical properties of the peptides: Some biochemical properties of the silverstainable peptide components of Product R are analyzed using various catabolic enzymes, as described below:
The treatment with chymotrypsin (Boehringer Mannheim, USA):Chymotrypsin is a serine protease that specifically hydrolyses the peptide bonds of tyrosine, phenylalanine and tryptophan at C-terminals. It also cleaves peptide bonds of leucine, methionine, alanine, aspartic acid and glutamic acid at C-terminals at relatively lower rates. A Product R sample is incubated in a reaction buffer containing 100 mM Tris-HCl, pH 7.6, 10 mM CaCl2 and 250 μg/ml of sequencing grade chymotrypsin at 25° C. for 19 hours and then subject to SDS-PAGE on a 16% gel.
(§2) A summary of the above described treatments by catabolic enzymes is provided in the following TABLE III, and the results of the treatment are shown in FIG. 5, wherein “−” represents no substantial alteration of the stainable bands and “+” represents substantial alteration of the stainable bands.

[1] = biological target: T2, bovine pancreatic Ribonuclease A (Bos taurus, UniProt P61823); assay: Treatment of Product R with ribonuclease A, SDS-PAGE on a 16% gel; assay type: physicochemical; parameters: key: “−” represents no substantial alteration of the stainable bands; “+” represents substantial alteration of the stainable bands; conditions: 37° C., about 1 hour
T2 construct: purchased ICN Biochemicals, USA
T2 sequence (P61823 27-150): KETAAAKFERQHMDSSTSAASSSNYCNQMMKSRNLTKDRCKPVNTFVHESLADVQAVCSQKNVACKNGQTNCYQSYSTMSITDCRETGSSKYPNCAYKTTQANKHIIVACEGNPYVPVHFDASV
Procedure: as §1
The treatment with ribonuclease A (ICN Biochemicals, USA): Ribonuclease A is a pyrimidine specific endoribonuclease that acts on single stranded RNA. A Product R sample is incubated in a reaction buffer containing 10 mM Tris-HCl, pH 7.4, 3 mM MgCl2, and I mg/ml of bovine pancreatic Ribonuclease A at 37° C. for about 1 hour and subject to SDS-PAGE on a 16% gel. […] The resistance to ribonuclease A excludes the possibility of the presence of a RNA fragment attached to the peptide.
as §2

[2] = tested on: MCP-1 secretion by U937 cells; assay: MCP-1 secretion by cultured U937 cells, ELISA; assay type: cell-based, human; conditions: for production of monocyte chemotactic protein 1 (MCP-1) in U937 cells: general statement; for up-regulation of MCP-1 secretion compared with Product R: peptide solutions 2 mg/ml, equimolar mixture 4 mg/ml, final concentration 10% in culture media, FIG. 20
Procedure: Ammonium sulfate precipitation of Product U peptides: Product U samples are lyophilized and re-dissolved in 20% of original sample volume in water (5X concentrated). Ammonium sulfate crystals are added to the solution to reach 60% ammonium sulfate saturation (390 mg/ml solution). Gentle mixing solubilizes crystals. Protein precipitates appear after 30 mm to 1 hr incubation on ice and is centrifuged at 16,000×g for 30 min. at […]. The pellet is dissolved in 5% of original sample volume in water. The solution is desalted by gel filtration chromatography through a column of BioGel P-2. The column is eluted with 0.1X phosphate buffered saline (PBS). Only protein containing fractions are pooled and lyophilized.
Separation and isolation of two major neptide of Product R by gel ruhranon chromatography: A BioGel P-10 column (1.6 cm×52 cm) was equilibrated with 0.1X concentration of PBS. Two ml of 2X concentrated Product R was applied to the column, which was eluted with the same buffer at a flow rate of 25 mI/hr. Four mm. fractions were collected. All protein-containing fractions are analyzed by Sodium dodecyl sulfate polyacrilamide gel electrophoresis (SDS-PAGE). Fraction, containing primarily peptide A and peptide B are pooled separately and lyophilized. Peptide A pool contains very little contamination of the other peptide, however, the peptide B pool is highly enriched but still contains peptide A as a major contaminant. A reasonable estimate of peptide purity in the pools is >90% for peptide A and >75% for peptide B.
U937 cell culture: The U937 human hystiocytic lymphoma cell line was purchased from the American Type Culture Collection. […]
Product R or isolated peptide treatment: Cells (1.0×10^5/ml) are cultured in growth medium containing Product R, isolated purified peptide solution, mixed peptides solution or Dulbecco's PBS for 2 days. Following centrifugation, the culture supernatants are analyzed using chemokine ELISA kits. […]
Measurement of secreted IL-8 and MCP-1: The concentrations of IL-8 and MCP-1 in the culture supernatants are assayed by ELISA, using human IL-S ELISA kits (Endogen. Inc.) and Quantikine human MCP-1 ELISA kits (R&D Systems, Inc.), respectively, according to manufacturer's instructions (with slight modifications for the MCP-1 ELISA). […] Absorbances are measured on a PowerWave 200 Microplate Scanning Spectrophotometer. Dilutions of the standard protein supplied by each manufacturer are utilized to generate a four-parameter logistic fit standard curve, and the concentration of chemokine in each supernatant is determined by extrapolation.

| Sequence | Sensitivity of the Peptide Components of Product R (SDS-PAGE): Chymotrypsin (250 μg/ml) (chymotrypsin) | change of band intensity after chymotrypsin treatment (chymotrypsin) | Sensitivity of the Peptide Components of Product R (SDS-PAGE): Ribonuclease A (1 mg/ml) [1] | production of monocyte chemotactic protein 1 (MCP-1) in U937 cells [2] | up-regulation of MCP-1 secretion compared with Product R ([2]; listed as peptide-B) | up-regulation of MCP-1 secretion compared with Product R [2] |
| --- | --- | --- | --- | --- | --- | --- |
| GEIPDAGGRIVDYYVGFSDSV (not fully specified (residue 18)) [Peptide-B, 21-amino acid peptide linked at serine 18 through a diphosphodiester group to the 3′-end of an adenylyl (3′-5′) adenosine moiety] | − | no apparent effect | − | capable of inducing the production; also recorded: contributes more to the activity than peptide-A | failed to elicit a response same as that of Product R; also recorded: slightly more active than peptide A; also recorded: induces higher levels of secretion of IL-8 or MCP-1 than peptide-A |  |
| KVLPVPQKAVPYPQRDMPIQAFLLYQEPVLG [Peptide-A, 31-amino-acid long peptide derived from bovine beta-casein, constituent of Product R] | + | significantly reduces the intensity | − | capable of inducing the production |  | failed to elicit a response same as that of Product R |

Source: patent US6528098B2, “Preparation of a therapeutic composition” (Advanced Viral Research Corp., priority 1996, dated 2003)
